Where a chain is given by its changes, count along the chain named. Where “and” joins values, the source holds several entries; their conditions need not be identical. Equal values may be shown once.
T1: ADO-I109A, N-terminally His-tagged and biotinylated (human, UniProt Q96SZ5 1-270, I109A, biotin (biotinylated during expression))
T1 construct: 2-aminoethanethiol dioxygenase (ADO), human, UniProt Q96SZ5, full length, site-directed mutant; source: E. coli Rosetta2(DE3), purified (Ni-NTA, SEC); not shown: biotinylation tag (from the vector pQE80L-Navi), N-terminal, kept
T1 sequence (looked up): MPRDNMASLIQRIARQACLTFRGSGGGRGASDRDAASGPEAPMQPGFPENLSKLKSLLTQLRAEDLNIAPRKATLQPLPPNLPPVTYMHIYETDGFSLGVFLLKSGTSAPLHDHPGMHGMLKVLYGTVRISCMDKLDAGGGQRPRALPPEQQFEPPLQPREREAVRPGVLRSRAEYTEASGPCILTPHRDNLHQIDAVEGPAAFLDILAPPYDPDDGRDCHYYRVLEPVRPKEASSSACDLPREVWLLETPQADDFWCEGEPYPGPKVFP

T2: ADO-Y87F, N-terminally His-tagged and biotinylated (human, UniProt Q96SZ5 1-270, Y87F, biotin (biotinylated during expression))
T2 construct: 2-aminoethanethiol dioxygenase (ADO), human, UniProt Q96SZ5, full length, site-directed mutant; source: E. coli Rosetta2(DE3), purified (Ni-NTA, SEC); not shown: biotinylation tag (from the vector pQE80L-Navi), N-terminal, kept
T2 sequence (looked up): T1 sequence (looked up) with Y87F, A109I

T3: ADO-F101A, N-terminally His-tagged and biotinylated (human, UniProt Q96SZ5 1-270, F101A, biotin (biotinylated during expression))
T3 construct: 2-aminoethanethiol dioxygenase (ADO), human, UniProt Q96SZ5, full length, site-directed mutant; source: E. coli Rosetta2(DE3), purified (Ni-NTA, SEC); not shown: biotinylation tag (from the vector pQE80L-Navi), N-terminal, kept
T3 sequence (looked up): T1 sequence (looked up) with F101A, A109I

T4: ADO-F256A, biotinylated (pQE80L-Navi-ADO) (human, UniProt Q96SZ5 1-270, F256A, biotin on the Avi tag)
T4 construct: Tag as in Dm1; source: E. coli Rosetta2(DE3), purified (Ni-NTA, SEC); not shown: Avi tag, N-terminal, kept; His6, N-terminal, kept
T4 sequence (looked up): T1 sequence (looked up) with A109I, F256A

T5: ADO-D206E, biotinylated (pQE80L-Navi-ADO) (human, UniProt Q96SZ5 1-270, D206E, biotin on the Avi tag)
T5 construct: Tag as in Dm1; source: E. coli Rosetta2(DE3), purified (Ni-NTA, SEC); not shown: Avi tag, N-terminal, kept; His6, N-terminal, kept
T5 sequence (looked up): T1 sequence (looked up) with A109I, D206E

B1: IL32(2-15), synthetic peptide corresponding to the methionine excised N-terminus of IL32, residues 2-15 (peptide, UniProt P24001 2-15, looked up)
peptide: CFPKVLSDDMKKLK
notes: interleukin 32 (IL32), residues 2-15 (N-terminal Cys exposed); also called 14-mer IL32; source: synthetic peptide
B2: RGS5_(2-15), synthetic peptide corresponding to the methionine excised N-terminus of RGS5, residues 2 to 15 (peptide, UniProt O15539 2-15, looked up)
peptide: CKGLAALPHSCLER
notes: Regulator of G-protein signalling 5 (RGS5), residues 2 to 15, N-terminal Cys; also called RGS5 peptide; source: synthetic peptide

Tests used:
Settings in all cases: both partners purified
[1] = target: T1, ADO-I109A, N-terminally His-tagged and …; assay: SPR; biotinylated ADO or ADO mutant immobilised on a Biotin CAP chip (~2500-3000 RU), substrate peptide injected; Biacore T200, 4 °C; 20 mM HEPES pH 7.5, 500 mM NaCl, 10 mM DTT, 0.1% tween-20; 50 µL/minute; multi-cycle or single-cycle mode not given; each cell is one of three independent measurements
[2] = target: T2, ADO-Y87F, N-terminally His-tagged and …; assay: as above
[3] = target: T3, ADO-F101A, N-terminally His-tagged and …; assay: as above
[4] = target: T4, ADO-F256A, biotinylated …; assay: SPR; single-cycle kinetics (SCK), 1:1 binding model; biotinylated ADO or variant immobilised on a Biotin CAP chip, peptide injected at 25.6, 64, 160, 400, 1000 nM; 4 °C; 20 mM HEPES pH 7.5, 500 mM NaCl, 10 mM DTT, 0.1% (v/v) tween-20; 50 μL/minute
[5] = target: T5, ADO-D206E, biotinylated …; assay: as above

Row | Binder | Kd [1] | Kd [2] | Kd [3] | Kd [4] | Kd [5]
1 | B1 | 14.2 µM and 15.1 µM and 18.4 µM | 0.303 µM and 0.327 µM and 0.329 µM | 37.9 µM and 35 µM and 37.6 µM |  | 
2 | B2 |  |  |  | 0.73 µM | 1.1 µM
